Assay results: US20220259330A1 (SUNSHINE GUOJIAN PHARMACEUTICAL SHANGHAI, published 2022)
Changes are numbered by the printed parent chain. Numbers in names are those of the source. Where “and” joins values, the source holds several entries; their conditions need not be identical. Equal values may be shown once.

T1: VEGF165-His (human, UniProt P15692-4 27-191)
T1 construct: also called Human VEGF165 with a 6*His tag
T1 sequence: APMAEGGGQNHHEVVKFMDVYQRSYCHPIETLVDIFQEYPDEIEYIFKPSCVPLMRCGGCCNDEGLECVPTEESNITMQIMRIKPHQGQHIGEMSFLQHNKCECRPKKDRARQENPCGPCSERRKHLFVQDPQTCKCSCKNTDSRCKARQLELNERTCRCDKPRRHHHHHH

B1: mAb127 (antibody, human IgG4 S228P, kappa, V domains shown)
VH: QVQLVQSGAEVKKPGASVKVSCKASGYTFTSEWMNWVRQAPGQGLEWMGQIFPALGSTNYNEMYEGRVTMTTDTSTSTAYMELRSLRSDDTAVYYCARGIGNYALDAMDYWGQGTLVTVSS
VL: DIQMTQSPSSLSASVGDRVTITCRASESVDFYGNSFMHWYQQKPGKAPKLLIYLASNLESGVPSRFSGSGSGTDFTLTISSLQPEDFATYYCQQNIEDPLTFGGGTKVEIKR
notes: Anti-TGF-β, IgG4 (S228P), kappa; also called mAb127-HC+mAb127-LC
B2: 14-Fab-1D11-IgG4 (bispecific antibody)
heavy: not shown
light: DIVLTQSPASLAVSPGQRATITCRASESVDNYGNSFMNWYQQKPGQPPKPLIYFASNLESGVPARFSGSGSRTDFTLTINPVEADDTANYYCQQNNEAPPTFGQGTKVEIKRTVAAPSVFIFPPSDEQLKSGTASVVCLLNNFYPREAKVQWKVDNALQSGNSQESVTEQDSKDSTYSLSSTLTLSKADYEKHKVYACEVTHQGLSSPVTKSFNRGEC
B3: 127-Fab-14-IgG4 (bispecific antibody)
heavy: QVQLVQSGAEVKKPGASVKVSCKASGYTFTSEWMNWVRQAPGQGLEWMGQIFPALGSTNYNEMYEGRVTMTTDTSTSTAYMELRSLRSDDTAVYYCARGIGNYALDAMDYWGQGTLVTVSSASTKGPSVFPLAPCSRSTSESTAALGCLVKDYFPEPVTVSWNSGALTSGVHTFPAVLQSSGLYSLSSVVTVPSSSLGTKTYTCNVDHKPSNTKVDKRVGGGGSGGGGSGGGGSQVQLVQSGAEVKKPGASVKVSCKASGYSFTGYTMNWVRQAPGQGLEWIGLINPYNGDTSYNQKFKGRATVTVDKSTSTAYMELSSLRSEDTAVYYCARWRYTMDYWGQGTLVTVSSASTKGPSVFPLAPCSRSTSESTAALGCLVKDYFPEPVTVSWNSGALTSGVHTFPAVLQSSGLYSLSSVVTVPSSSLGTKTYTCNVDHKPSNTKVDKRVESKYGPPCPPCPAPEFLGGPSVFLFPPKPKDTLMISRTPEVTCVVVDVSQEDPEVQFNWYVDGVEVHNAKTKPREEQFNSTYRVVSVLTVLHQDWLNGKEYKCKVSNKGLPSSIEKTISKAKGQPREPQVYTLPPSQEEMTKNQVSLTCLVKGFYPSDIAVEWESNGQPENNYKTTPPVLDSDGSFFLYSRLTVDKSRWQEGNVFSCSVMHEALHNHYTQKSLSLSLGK
light: B2 light
B4: 1D11-Fab-14-IgG4 (bispecific antibody)
heavy: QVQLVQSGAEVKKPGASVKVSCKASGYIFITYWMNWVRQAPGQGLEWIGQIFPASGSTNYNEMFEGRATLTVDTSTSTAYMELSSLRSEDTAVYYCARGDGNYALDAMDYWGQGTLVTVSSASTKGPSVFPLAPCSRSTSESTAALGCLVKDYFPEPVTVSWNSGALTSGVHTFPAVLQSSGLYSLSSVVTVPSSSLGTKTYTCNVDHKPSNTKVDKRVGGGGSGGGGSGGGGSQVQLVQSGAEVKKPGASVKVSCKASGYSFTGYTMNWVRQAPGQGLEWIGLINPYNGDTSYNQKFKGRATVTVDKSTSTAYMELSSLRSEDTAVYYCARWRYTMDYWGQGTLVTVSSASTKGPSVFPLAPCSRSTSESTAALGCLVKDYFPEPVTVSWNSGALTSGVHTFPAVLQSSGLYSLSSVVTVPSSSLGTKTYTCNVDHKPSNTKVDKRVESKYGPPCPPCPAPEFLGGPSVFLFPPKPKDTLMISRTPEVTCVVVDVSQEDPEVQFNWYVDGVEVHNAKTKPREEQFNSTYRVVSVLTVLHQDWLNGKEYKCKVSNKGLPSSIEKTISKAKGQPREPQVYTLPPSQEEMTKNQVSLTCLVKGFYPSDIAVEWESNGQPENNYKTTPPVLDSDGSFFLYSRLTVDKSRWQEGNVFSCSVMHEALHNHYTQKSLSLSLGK
light: B2 light
B5: 14-Hu-HC+1D11-Hu-LC (antibody, human IgG4 S228P, kappa, V domains shown)
VH: QVQLVQSGAEVKKPGASVKVSCKASGYSFTGYTMNWVRQAPGQGLEWIGLINPYNGDTSYNQKFKGRATVTVDKSTSTAYMELSSLRSEDTAVYYCARWRYTMDYWGQGTLVTVSS
VL: DIVLTQSPASLAVSPGQRATITCRASESVDSYGNSFMHWYQQKPGQPPKLLIYLASNLESGVPARFSGSGSGTDFTLTINPVEADDTANYYCQQNNEDPLTFGGGTKVELKR
notes: Hybrid antibody
B6: 1D11-Hu (antibody, human IgG4 S228P, kappa, V domains shown)
VH: QVQLVQSGAEVKKPGASVKVSCKASGYIFITYWMNWVRQAPGQGLEWIGQIFPASGSTNYNEMFEGRATLTVDTSTSTAYMELSSLRSEDTAVYYCARGDGNYALDAMDYWGQGTLVTVSS
VL: B5 VL
notes: Humanized anti-TGF-β, IgG4 (S228P), kappa; also called 1D11-Hu-HC+1D11-Hu-LC
B7: 1D11-Hu-HC+14-Hu-LC (antibody, human IgG4 S228P, kappa, V domains shown)
VH: B6 VH
VL: B5 VL with S31N, H38N, L50P, L54F, G72R, D98A, L100P, G104Q, L110I
notes: Hybrid antibody
B8: 601-HC+20-Hu-LC (antibody, human IgG1, kappa, V domains shown)
VH: EVQLVESGGGLVQPGGSLRLSCAASGYTFTNYGMNWVRQAPGKGLEWVGWINTYTGEPTYAADFKRRFTFSLDTSKSTAYLQMNSLRAEDTAVYYCAKYPHYYGSSHWYFDVWGQGTLVTVSS
VL: DIQMTQSPSSLSASVGDRVTITCSASQGISNFLSWYQQKPGKTVKLLIYYTSSLHSGVPSRFSGSGSGTDYTFTISSLQPEDIATYYCQQYSNLPWTFGQGTKVEIKR
notes: Hybrid antibody
B9: 601-HC+601-LC-F71Y (antibody, human IgG1, kappa, V domains shown)
VH: B8 VH
VL: DIQMTQSPSSLSASVGDRVTITCSASQDISNYLNWYQQKPGKAPKVLIYFTSSLHSGVPSRFSGSGSGTDYTLTISSLQPEDFATYYCQQYSTVPWTFGQGTKVEIKR
B10: 601-HC+601-LC-N34S (antibody, human IgG1, kappa, V domains shown)
VH: B8 VH
VL: B9 VL with N34S, Y71F
B11: 601-HC+601-LC-F50Y (antibody, human IgG1, kappa, V domains shown)
VH: B8 VH
VL: B9 VL with F50Y, Y71F
B12: 601-HC+601-LC-D28G (antibody, human IgG1, kappa, V domains shown)
VH: B8 VH
VL: B9 VL with D28G, Y71F
B13: 609-Fab-137-IgG4 (bispecific antibody)
heavy: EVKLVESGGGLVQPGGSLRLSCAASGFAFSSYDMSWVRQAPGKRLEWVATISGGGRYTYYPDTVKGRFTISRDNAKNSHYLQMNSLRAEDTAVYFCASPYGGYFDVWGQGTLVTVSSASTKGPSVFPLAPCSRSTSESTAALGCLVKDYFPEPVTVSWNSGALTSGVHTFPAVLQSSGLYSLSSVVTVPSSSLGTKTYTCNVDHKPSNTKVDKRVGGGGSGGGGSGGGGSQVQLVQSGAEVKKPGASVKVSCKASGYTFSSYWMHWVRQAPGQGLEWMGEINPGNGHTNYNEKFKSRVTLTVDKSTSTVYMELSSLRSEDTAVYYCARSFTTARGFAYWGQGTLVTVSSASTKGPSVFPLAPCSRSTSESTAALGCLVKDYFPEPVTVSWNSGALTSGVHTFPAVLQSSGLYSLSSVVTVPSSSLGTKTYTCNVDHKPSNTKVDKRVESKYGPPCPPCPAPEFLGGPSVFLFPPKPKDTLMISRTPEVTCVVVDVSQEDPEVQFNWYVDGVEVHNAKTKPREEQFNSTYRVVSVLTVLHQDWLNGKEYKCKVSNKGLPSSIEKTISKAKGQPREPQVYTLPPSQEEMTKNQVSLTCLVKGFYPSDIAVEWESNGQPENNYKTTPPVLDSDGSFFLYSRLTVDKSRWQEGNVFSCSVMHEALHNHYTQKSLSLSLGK
light: EIVMTQSPDFQSVTPKEKVTITCRASQTISDYLHWYQQKPDQSPKLLIKYASQSISGIPSRFSGSGSGSDFTLTINSLEAEDAATYYCQDGHSFPPTFGQGTKVEIKRTVAAPSVFIFPPSDEQLKSGTASVVCLLNNFYPREAKVQWKVDNALQSGNSQESVTEQDSKDSTYSLSSTLTLSKADYEKHKVYACEVTHQGLSSPVTKSFNRGEC
B14: 137-Fab-609-IgG4 (bispecific antibody)
heavy: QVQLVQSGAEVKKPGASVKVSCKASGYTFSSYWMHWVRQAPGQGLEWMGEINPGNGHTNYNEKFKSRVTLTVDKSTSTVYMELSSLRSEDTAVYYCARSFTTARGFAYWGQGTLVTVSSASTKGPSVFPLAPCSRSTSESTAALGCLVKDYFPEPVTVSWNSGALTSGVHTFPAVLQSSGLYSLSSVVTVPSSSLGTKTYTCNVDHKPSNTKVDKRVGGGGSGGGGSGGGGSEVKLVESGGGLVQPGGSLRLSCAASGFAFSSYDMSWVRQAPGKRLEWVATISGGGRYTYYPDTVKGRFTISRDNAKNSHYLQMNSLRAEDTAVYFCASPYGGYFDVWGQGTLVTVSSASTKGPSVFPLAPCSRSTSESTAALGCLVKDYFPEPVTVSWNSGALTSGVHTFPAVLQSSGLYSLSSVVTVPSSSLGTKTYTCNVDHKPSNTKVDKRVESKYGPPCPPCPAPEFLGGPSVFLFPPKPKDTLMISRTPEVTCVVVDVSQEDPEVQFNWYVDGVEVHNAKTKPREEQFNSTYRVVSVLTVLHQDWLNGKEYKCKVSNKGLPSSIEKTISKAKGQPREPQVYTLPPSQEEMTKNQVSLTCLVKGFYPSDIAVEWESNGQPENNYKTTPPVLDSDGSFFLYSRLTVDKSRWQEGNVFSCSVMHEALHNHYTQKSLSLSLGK
light: B13 light
B15: Anti-CD137-Hu (antibody, human IgG4 S228P, kappa, V domains shown)
VH: QVQLVQSGAEVKKPGASVKVSCKASGYTFSSYWMHWVRQAPGQGLEWMGEINPGNGHTNYNEKFKSRVTLTVDKSTSTVYMELSSLRSEDTAVYYCARSFTTARGFAYWGQGTLVTVSS
VL: EIVMTQSPDFQSVTPKEKVTITCRASQTISDYLHWYQQKPDQSPKLLIKYASQSISGIPSRFSGSGSGSDFTLTINSLEAEDAATYYCQDGHSFPPTFGQGTKVEIKR
notes: Humanized anti-human CD137, IgG4 (S228P), kappa; also called humanized 4B4-1-1
B16: Anti-CD137-Hu-HC+609-LC (antibody, human IgG4 S228P, kappa, V domains shown)
VH: B15 VH
VL: EIVLTQSPATLSLSPGERATLSCRASQSISNFLHWYQQKPGQAPRLLIKYASQSISGIPARFSGSGSGTDFTLTISSLEPEDFAVYFCQQSNSWPHTFGQGTKVEIKR
notes: Hybrid antibody
B17: 20-Hu-HC+601-LC-D28G (antibody, human IgG4 S228P, kappa, V domains shown)
VH: EVQLVESGGGLVQPGGSLRLSCAASGFVFSNYDMSWVRQAPGKRLEWVATISGGGGYTYYSDSVKGRFTISRDNAKNSLYLQMNSLRAEDTAVYYCASPYGHYGFEYWGQGTLVTVSS
VL: B9 VL with D28G, Y71F
B18: 20-Hu-HC+601-LC-F50Y (antibody, human IgG4 S228P, kappa, V domains shown)
VH: B17 VH
VL: B9 VL with F50Y, Y71F
B19: 20-Hu-HC+601-LC-T93N (antibody, human IgG4 S228P, kappa, V domains shown)
VH: B17 VH
VL: B9 VL with Y71F, T93N
B20: 20-Hu-HC+601-LC-N34S (antibody, human IgG4 S228P, kappa, V domains shown)
VH: B17 VH
VL: B9 VL with N34S, Y71F
B21: 20-Hu-HC+601-LC-Y32F (antibody, human IgG4 S228P, kappa, V domains shown)
VH: B17 VH
VL: B9 VL with Y32F, Y71F
B22: 20-Hu-HC+601-LC-F71Y (antibody, human IgG4 S228P, kappa, V domains shown)
VH: B17 VH
VL: B9 VL
B23: 20-Hu-HC+601-LC-V46L (antibody, human IgG4 S228P, kappa, V domains shown)
VH: B17 VH
VL: B9 VL with V46L, Y71F
B24: 19H6-Hu-HC+94-Hu-LC (antibody, human IgG1, kappa, V domains shown)
VH: QVQLVQSGAEVKKPGASVKVSCKGSGYTFTDYAIHWVRQAPGQSLEWIGVFSIYYENINYNQKFKGRATMTVDKSTSTAYMELRSLRSDDTAVYYCARRDGGTINYWGQGTLVTVSS
VL: DVVMTQSPLSLPVTLGQPASISCRSSQSLLHSNGNTYLHWYQQRPGQSPRLLFYKVSNRFSGVPDRFSGSGSGTDFTLKISRVEAEDVGVYFCSQSTHVPWTFGQGTKVEIKR
notes: Hybrid antibody
B25: 94-Hu (antibody, human IgG1, kappa, V domains shown)
VH: QVQLQESGPGLVKPSETLSLTCTVSGFSLSSYDISWIRQPPGKGLEWLGVIWTGGGTNYNSAFMSRLTISKDNSKSQVSLKLSSVTAADTAVYYCVRMDYWGQGTLVTVSS
VL: B24 VL
notes: Humanized anti-human CD137, IgG1, kappa; also called 94-Hu-HC+94-Hu-LC
B26: 94-Hu-HC+19H6-Hu-LC (antibody, human IgG1, kappa, V domains shown)
VH: B25 VH
VL: B24 VL with L30V, F53I, V99I
notes: Hybrid antibody
B27: 94-Fab-19H6-IgG1-LALA (bispecific antibody)
heavy: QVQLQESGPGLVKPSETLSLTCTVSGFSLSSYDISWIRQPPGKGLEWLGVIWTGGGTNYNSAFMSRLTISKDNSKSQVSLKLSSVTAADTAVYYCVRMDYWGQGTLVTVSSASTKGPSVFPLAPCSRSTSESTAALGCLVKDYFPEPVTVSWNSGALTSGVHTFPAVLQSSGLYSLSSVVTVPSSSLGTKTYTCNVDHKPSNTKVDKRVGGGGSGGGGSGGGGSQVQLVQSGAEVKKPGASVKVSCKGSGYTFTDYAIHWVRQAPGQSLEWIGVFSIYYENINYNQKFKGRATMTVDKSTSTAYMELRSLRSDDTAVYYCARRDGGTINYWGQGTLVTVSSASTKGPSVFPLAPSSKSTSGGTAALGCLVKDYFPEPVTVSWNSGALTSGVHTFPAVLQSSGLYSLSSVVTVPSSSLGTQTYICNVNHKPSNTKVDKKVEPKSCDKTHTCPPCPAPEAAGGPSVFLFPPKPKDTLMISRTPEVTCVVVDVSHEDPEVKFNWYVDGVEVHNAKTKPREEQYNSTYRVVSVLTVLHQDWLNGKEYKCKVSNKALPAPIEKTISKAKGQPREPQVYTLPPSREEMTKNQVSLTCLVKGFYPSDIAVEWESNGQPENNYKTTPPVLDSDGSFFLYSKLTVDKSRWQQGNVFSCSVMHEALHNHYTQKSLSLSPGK
light: DVVMTQSPLSLPVTLGQPASISCRSSQSLVHSNGNTYLHWYQQRPGQSPRLLIYKVSNRFSGVPDRFSGSGSGTDFTLKISRVEAEDVGVYFCSQSTHIPWTFGQGTKVEIKRTVAAPSVFIFPPSDEQLKSGTASVVCLLNNFYPREAKVQWKVDNALQSGNSQESVTEQDSKDSTYSLSSTLTLSKADYEKHKVYACEVTHQGLSSPVTKSFNRGEC
B28: 19H6-Fab-94-IgG1-LALA (bispecific antibody)
heavy: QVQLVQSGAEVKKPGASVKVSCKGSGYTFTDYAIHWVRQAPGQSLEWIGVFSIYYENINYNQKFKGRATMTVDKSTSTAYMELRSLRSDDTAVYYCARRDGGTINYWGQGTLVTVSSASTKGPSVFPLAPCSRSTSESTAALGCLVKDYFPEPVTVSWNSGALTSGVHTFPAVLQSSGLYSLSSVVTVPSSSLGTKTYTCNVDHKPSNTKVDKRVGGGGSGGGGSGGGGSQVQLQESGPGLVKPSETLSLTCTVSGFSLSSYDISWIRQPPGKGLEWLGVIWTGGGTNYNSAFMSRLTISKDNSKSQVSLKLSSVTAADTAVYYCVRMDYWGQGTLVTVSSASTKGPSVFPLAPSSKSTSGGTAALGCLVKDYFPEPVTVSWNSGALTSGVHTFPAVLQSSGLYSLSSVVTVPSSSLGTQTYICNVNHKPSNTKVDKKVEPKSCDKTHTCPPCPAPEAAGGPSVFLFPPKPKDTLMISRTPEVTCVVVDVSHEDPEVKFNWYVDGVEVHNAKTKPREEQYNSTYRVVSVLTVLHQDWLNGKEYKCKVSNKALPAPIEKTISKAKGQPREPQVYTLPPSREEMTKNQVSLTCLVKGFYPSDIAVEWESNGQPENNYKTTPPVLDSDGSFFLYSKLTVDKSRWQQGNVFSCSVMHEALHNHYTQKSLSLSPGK
light: B27 light

The binders below were run against TGF-β1 (Sino Biological, Cat. No. 10804-HNAC) (UniProt P01137 279-390) (assay: ELISA, plate coated with TGF-β1).
Chain of TGF-β1 (Sino Biological, Cat. No. 10804-HNAC) (P01137 279-390 limits assumed): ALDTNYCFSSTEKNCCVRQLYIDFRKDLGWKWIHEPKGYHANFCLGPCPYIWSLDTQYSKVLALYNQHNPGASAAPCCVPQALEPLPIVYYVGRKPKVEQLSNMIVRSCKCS

Row | EC50 | binding result | Binder
1 | 0.0414 nM |  | B1
2 | 0.699 nM |  | B2
3 | 0.108 nM |  | B3
4 | 0.363 nM |  | B4
5 |  | no binding | B5
6 | 0.0662 nM and 0.134 nM |  | B6
7 | 0.525 nM and 1.27 nM |  | B7

Each binder was assayed against T1, VEGF165-His (assay: ELISA, plate coated with VEGF165-His).

Row | EC50 [nM] | Binder
8 | 8.22 | B8
9 | 0.148 | B9
10 | 0.208 | B10
11 | 0.14 | B11
12 | 0.133 | B12

The binders below were run against T2, PD1-ECD-His (human, UniProt Q15116 25-170) (assay: ELISA, plate coated with PD1-ECD-His).
T2 construct: extracellular domain; Bought; also called recombinant protein of the extracellular segment of human PD-1 with a polyhistidine tag (Sino Biological 10377-H08H); not shown: polyhistidine tag
T2 sequence (Q15116 25-170): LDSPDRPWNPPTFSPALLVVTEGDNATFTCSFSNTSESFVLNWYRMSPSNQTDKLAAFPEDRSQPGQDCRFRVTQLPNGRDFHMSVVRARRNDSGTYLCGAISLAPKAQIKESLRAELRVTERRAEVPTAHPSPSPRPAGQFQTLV

Row | EC50 [nM] | binding result | Binder
13 | 0.229 |  | B13
14 | 1.42 |  | B14
15 |  | no binding | B15
16 |  | no binding | B16

Each binder was assayed against T3, PD1-His (human, UniProt Q15116 25-170) (assay: ELISA, plate coated with PD1-His).
T3 construct: extracellular domain; In-house protein; also called extracellular domain protein of human PD-1 with a 6*His tag
T3 sequence (Q15116 other isoform, or with tags, fused parts or gaps): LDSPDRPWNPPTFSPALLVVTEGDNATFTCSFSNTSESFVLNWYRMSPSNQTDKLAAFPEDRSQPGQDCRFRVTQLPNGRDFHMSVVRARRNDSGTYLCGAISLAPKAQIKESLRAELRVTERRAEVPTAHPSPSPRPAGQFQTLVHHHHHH

Row | EC50 [nM] | binding result | Binder
17 | 0.437 |  | B2
18 | 3.96 |  | B3
19 | 2 |  | B4
20 |  | no binding | B5
21 |  | no binding | B6
22 |  | no binding | B7
23 | 0.485 |  | B17
24 | 0.525 |  | B18
25 | 0.486 |  | B19
26 | 0.175 |  | B20
27 | 0.456 |  | B21
28 | 1.03 |  | B22
29 | 0.533 |  | B23

Each binder was assayed against T4, HER2-ECD-His (human, UniProt P04626 23-652) (assay: ELISA, plate coated with HER2-ECD-His).
T4 construct: extracellular domain; Bought; also called recombinant protein of the extracellular segment of human Her-2 with a polyhistidine tag (ACROBiosystems HE2-H5225); not shown: polyhistidine tag

Row | EC50 [nM] | binding result | Binder
30 | 0.139 |  | B24
31 |  | no binding | B25
32 |  | no binding | B26
33 | 0.158 |  | B27
34 | 0.12 |  | B28

Each binder was assayed against T5, CD137-ECD-Fc (human, UniProt Q07011 24-186) (assay: ELISA, plate coated with CD137-ECD-Fc).
T5 construct: extracellular domain; Bought; also called recombinant protein of the extracellular segment of human CD137 with Fc tags (Sino Biological 10041-H02H); not shown: Fc tag
T5 sequence (Q07011 24-186): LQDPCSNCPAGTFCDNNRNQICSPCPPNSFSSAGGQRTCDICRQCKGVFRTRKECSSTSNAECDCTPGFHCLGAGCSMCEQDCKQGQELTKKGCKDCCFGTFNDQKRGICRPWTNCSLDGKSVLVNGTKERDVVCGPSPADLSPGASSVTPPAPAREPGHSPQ

Row | binding result | EC50 [nM] | Binder
35 | no binding |  | B24
36 |  | 0.391 | B25
37 |  | 0.634 | B26
38 |  | 0.357 | B13
39 |  | 0.242 | B14
40 |  | 0.461 | B15
41 | no binding |  | B16
42 |  | 0.241 | B27
43 |  | 27.6 | B28
